Reference: patent publication US20240116985A1 (published 2024)
Starred links: 1 amine or outer side, 2 acyl side, 3 side chain; linkers in the order of their positions; H or OH if unused. Positions of bridges follow the written chain, without caps; N, C: chain ends. Non-standard residues stand in square brackets, D forms with d. Primed or numbered codes have the meaning given here. PyrS2(3) = (S)-3-amino-1-((pent-4-en-1-yloxy)carbonyl)pyrrolidine-3-carboxylic acid, stapling residue, C=CCCCOC(=O)N1CC[C@@](N[*:1])(C(=O)[*:2])C1; PyrS2″ = (S)-3-amino-1-((pent-4-en-1-yloxy)carbonyl)pyrrolidine-3-carboxylic acid (stapling residue), C=CCCCOC(=O)N1CC[C@@](N[*:1])(C(=O)[*:2])C1; B5(16) = 2-amino-2-(pent-4-en-1-yl)hept-6-enoic acid = 2,2-bis(4-pentenyl)glycine (stitching residue), C=CCCCC(CCCC=C)(N[*:1])C(=O)[*:2]; B5(24) = 2-amino-2-(pent-4-en-1-yl)hept-6-enoic acid, 2,2-bis(4-pentenyl)glycine (stitching residue), C=CCCCC(CCCC=C)(N[*:1])C(=O)[*:2]; B5(4) = 2,2-bis(4-pentenyl)glycine = 2-amino-2-(pent-4-en-1-yl)hept-6-enoic acid (stitching residue), C=CCCCC(CCCC=C)(N[*:1])C(=O)[*:2]; TfeGA = (S)-2-amino-3-((carboxymethyl)(2,2,2-trifluoroethyl)amino)propanoic acid, O=C([C@H](CN(CC(=O)[*:3])CC(F)(F)F)N[*:1])[*:2]; PyrS2 = (S)-3-amino-1-((pent-4-en-1-yloxy)carbonyl)pyrrolidine-3-carboxylic acid, C=CCCCOC(=O)N1CC[C@@](N[*:1])(C(=O)[*:2])C1; MePpzAsn = (S)-2-amino-4-(4-methylpiperazin-1-yl)-4-oxobutanoic acid, CN1CCN(C(=O)C[C@H](N[*:1])C(=O)[*:2])CC1; F2PipNva = (S)-2-amino-5-(4,4-difluoropiperidin-1-yl)pentanoic acid, O=C([C@H](CCCN1CCC(F)(F)CC1)N[*:1])[*:2]; MorphAsn = (S)-2-amino-4-morpholino-4-oxobutanoic acid, O=C(C[C@H](N[*:1])C(=O)[*:2])N1CCOCC1; B5(3) = 2,2-bis(4-pentenyl)glycine (stitching residue), C=CCCCC(CCCC=C)(N[*:1])C(=O)[*:2]; B5″ = 2,2-bis(4-pentenyl)glycine, stitching residue, C=CCCCC(CCCC=C)(N[*:1])C(=O)[*:2]; Nva(5-morpholino) = N[C@@H](CCCN1CCOCC1)C(=O)O; Phe(3-COOH) = N[C@@H](Cc1cccc(C(=O)O)c1)C(=O)O; 2F3MeF = Cc1cccc(C[C@H](N[*:1])C(=O)[*:2])c1F; Phe(3-CN) = N#Cc1cccc(C[C@H](N)C(=O)O)c1; Phe(4-CN) = N#Cc1ccc(C[C@H](N)C(=O)O)cc1; Phe(2-CN) = N#Cc1ccccc1C[C@H](N)C(=O)O; Phe(2-Cl) = N[C@@H](Cc1ccccc1Cl)C(=O)O; Bta = N[C@@H](Cc1csc2ccccc12)C(=O)O; Lys(iPr) = CC(C)NCCCC[C@H](N)C(=O)O; αAllylPro = C=CC[C@@]1(C(=O)O)CCCN1; tBuAla = CC(C)(C)C[C@H](N)C(=O)O; 3Thi = N[C@@H](Cc1ccsc1)C(=O)O

T1: full-length beta-Catenin (Uniprot ID P35222) (Homo sapiens (Human), UniProt P35222 2-781)
T1 construct: also called bCat; B-Catenin
T1 sequence: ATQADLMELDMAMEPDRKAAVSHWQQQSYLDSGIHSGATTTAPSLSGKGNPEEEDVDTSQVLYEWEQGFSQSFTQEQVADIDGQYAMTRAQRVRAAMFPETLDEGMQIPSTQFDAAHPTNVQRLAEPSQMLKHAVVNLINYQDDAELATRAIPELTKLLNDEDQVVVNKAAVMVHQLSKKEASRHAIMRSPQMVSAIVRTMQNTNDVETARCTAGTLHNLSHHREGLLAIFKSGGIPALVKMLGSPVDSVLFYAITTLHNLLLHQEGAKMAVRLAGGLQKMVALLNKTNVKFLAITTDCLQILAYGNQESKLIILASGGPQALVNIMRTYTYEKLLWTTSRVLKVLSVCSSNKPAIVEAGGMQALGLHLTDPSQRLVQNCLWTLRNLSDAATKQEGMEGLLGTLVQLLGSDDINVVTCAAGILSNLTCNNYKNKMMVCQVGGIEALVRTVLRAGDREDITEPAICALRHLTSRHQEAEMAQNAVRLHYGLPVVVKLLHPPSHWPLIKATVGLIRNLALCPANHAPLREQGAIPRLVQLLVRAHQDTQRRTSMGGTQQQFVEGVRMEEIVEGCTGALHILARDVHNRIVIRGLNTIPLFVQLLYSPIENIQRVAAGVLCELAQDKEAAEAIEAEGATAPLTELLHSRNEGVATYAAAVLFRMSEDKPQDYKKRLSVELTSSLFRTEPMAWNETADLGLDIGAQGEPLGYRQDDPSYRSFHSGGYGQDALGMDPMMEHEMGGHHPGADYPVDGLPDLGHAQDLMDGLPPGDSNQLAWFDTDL

T2: B-cat-Halo (beta-catenin HaloTag construct expressed in HEK293 cells) (UniProt P35222 1-781)
T2 sequence (looked up): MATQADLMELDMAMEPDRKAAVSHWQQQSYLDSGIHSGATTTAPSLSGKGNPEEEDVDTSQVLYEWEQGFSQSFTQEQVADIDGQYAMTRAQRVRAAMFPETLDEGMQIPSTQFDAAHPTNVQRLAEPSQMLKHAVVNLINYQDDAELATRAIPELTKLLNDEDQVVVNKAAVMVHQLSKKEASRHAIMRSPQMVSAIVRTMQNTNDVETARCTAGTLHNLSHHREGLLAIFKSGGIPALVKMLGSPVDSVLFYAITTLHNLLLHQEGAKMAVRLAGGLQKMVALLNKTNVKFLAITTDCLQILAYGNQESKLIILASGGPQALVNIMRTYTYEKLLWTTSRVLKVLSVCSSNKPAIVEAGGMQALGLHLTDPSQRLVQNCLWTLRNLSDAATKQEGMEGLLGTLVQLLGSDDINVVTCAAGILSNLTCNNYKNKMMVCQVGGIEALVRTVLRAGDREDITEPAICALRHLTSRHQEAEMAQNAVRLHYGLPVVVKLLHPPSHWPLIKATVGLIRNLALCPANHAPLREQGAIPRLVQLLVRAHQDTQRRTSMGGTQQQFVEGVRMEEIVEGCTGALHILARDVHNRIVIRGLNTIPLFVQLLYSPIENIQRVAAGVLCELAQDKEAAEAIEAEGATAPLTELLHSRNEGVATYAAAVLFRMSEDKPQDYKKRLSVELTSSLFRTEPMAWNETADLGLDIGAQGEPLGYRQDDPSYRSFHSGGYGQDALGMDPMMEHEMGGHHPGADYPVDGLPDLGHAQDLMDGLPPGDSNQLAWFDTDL

T3: B-cat-Halo (UniProt P35222 1-781)
T3 sequence (looked up): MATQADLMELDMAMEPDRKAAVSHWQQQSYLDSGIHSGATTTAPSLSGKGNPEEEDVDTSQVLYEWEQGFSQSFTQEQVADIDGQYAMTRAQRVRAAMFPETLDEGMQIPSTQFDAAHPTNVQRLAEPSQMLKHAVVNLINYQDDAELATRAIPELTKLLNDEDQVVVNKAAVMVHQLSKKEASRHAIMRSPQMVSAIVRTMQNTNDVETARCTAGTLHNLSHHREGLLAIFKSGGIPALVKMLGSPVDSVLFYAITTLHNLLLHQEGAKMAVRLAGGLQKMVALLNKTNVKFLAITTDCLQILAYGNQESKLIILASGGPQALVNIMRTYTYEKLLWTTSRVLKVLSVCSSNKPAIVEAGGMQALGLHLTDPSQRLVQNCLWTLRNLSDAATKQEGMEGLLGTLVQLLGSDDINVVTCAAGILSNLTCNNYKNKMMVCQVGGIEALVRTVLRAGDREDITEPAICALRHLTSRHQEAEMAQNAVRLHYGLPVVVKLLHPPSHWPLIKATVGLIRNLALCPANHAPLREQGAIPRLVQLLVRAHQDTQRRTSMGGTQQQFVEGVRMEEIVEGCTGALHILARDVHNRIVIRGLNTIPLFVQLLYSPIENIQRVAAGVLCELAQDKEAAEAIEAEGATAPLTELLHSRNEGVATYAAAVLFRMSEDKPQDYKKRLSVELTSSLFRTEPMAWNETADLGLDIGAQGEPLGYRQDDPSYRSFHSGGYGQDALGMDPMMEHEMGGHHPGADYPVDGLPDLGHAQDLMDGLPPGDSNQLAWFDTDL

T4: Bcat-Halo (UniProt P35222 1-781, HaloTag NanoBRET 618 Ligand bound in the assay)
T4 construct: Expressed by transfection in HEK293 cells; also called beta-catenin HaloTag NanoBRET construct; not shown: HaloTag
T4 sequence (looked up): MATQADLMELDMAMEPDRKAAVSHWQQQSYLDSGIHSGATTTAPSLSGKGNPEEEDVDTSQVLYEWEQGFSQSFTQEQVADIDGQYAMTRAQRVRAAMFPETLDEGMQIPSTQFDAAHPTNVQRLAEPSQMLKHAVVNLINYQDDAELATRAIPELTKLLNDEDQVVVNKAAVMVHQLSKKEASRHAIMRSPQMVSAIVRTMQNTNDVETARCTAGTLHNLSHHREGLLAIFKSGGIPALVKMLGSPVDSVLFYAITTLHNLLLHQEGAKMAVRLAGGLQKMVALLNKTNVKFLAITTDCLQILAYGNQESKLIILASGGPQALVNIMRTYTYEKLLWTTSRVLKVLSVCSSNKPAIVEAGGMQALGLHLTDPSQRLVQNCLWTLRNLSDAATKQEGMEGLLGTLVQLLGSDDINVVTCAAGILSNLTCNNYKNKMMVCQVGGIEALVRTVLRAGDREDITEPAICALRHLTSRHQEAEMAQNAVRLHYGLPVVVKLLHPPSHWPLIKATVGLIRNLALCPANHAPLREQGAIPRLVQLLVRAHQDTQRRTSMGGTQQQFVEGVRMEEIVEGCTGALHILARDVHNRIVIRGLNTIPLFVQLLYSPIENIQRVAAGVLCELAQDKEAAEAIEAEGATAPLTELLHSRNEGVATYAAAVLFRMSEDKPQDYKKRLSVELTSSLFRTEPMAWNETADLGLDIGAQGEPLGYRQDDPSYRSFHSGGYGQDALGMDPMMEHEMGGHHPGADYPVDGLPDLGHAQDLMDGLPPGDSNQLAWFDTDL

B1: I-1146 (peptide)
peptide: Ac-[αAllylPro]DF[B5(16)]DDAAFL[PyrS2″][Phe(2-Cl)][Bta][dT]-NH2
modifications: staple 1-4, 4-11
notes: Stapled (stitched) peptide composition; olefin isomer not specified
B2: I-1155 (peptide)
peptide: Ac-[αAllylPro]DF[B5(16)]DDLLFS[PyrS2″][Phe(2-Cl)][Bta]Q-NH2
modifications: staple 1-4, 4-11
notes: as for B1
B3: I-1154 (peptide)
peptide: Ac-[αAllylPro]DF[B5(16)]DDALFS[PyrS2″][Phe(2-Cl)][Bta]Q-NH2
modifications: staple 1-4, 4-11
notes: as for B1
B4: I-1141 (peptide)
peptide: Ac-[αAllylPro]DF[B5(24)]DDAAFS[PyrS2″][Phe(2-Cl)][Bta]T-NH2
modifications: staple 1-4, 4-11
notes: as for B1
B5: I-1144 (peptide)
peptide: Ac-[αAllylPro]DF[B5(24)]DDAAFS[PyrS2″][Phe(2-Cl)][Bta]L-NH2
modifications: staple 1-4, 4-11
notes: as for B1

Target: T1, full-length beta-Catenin (Uniprot ID …)
Assay: fluorescence polarization competition vs 5FAM-TCF4(10-53) on full-length beta-catenin
How it was run: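 Data fitted to 1:1 binding model with hill slope from duplicate reads taken after 60 minutes at 20° C. in the dark.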

In order of rising IC50:
1. B1  0.033 µM
2. B3  0.045 µM
3. B2  0.06 µM

Target: T2, B-cat-Halo (beta-catenin HaloTag …)
Assay: cell-based or functional assay

Ac-[αAllylPro]D[tBuAla][B5″]DDAA[Phe(4-CN)]L[PyrS2(3)][3Thi][Bta]Q-NH2 (staple 1-4, 4-11) [I-1202] and Ac-[αAllylPro]D[tBuAla][B5″]DDAA[Phe(3-CN)]L[PyrS2(3)][3Thi][Bta]Q-NH2 (staple 1-4, 4-11) [I-1201] are within 1.5-fold of each other in “NanoBRET Abs IC50” value: 16.3 µM for the first, 19.6 µM for the second.

In the case of Ac-[αAllylPro]D[tBuAla][B5″]DDAA[Phe(2-CN)]L[PyrS2(3)][3Thi][Bta]Q-NH2 (staple 1-4, 4-11) [I-1200], the “NanoBRET Abs IC50” value is reported as over 20 µM.

Target: T3, B-cat-Halo
Assay: cell-based or functional assay

First: Ac-[αAllylPro]D[tBuAla][B5(4)]D[TfeGA]AAFT[PyrS2][Phe(2-Cl)][Bta][F2PipNva]-NH2 (staple 1-4, 4-11) [I-1607]
Second: Ac-[αAllylPro]D[tBuAla][B5(3)]D[Phe(3-COOH)]AAFL[PyrS2″][2F3MeF][Bta][MorphAsn]-NH2 (staple 1-4, 4-11) [I-1614]
The “NanoBRET Abs IC50” value of the first is 1.9-fold higher: 11.9 µM for the first, 6.4 µM for the second.

Going from Ac-[αAllylPro]D[tBuAla][B5(3)]D[TfeGA]AAFT[PyrS2″][Phe(2-Cl)][Bta][MePpzAsn]-NH2 (staple 1-4, 4-11) [I-1611] to Ac-[αAllylPro]D[tBuAla][B5(3)]D[TfeGA]AAFT[PyrS2″][Phe(2-Cl)][Bta][MorphAsn]-NH2 (staple 1-4, 4-11) [I-1613], the “NanoBRET Abs IC50” value falls from 9.8 µM to 5.2 µM (1.9-fold).

First: Ac-[αAllylPro]N[tBuAla][B5(4)]DT[Lys(iPr)]AFN[PyrS2]F[Bta]Q-NH2 (staple 1-4, 4-11) [I-1602]
Second: Ac-[αAllylPro]D[tBuAla][B5(3)]D[Phe(3-COOH)]AAFL[PyrS2][2F3MeF][Bta][Nva(5-morpholino)]-NH2 (staple 1-4, 4-11) [I-1610]
The “NanoBRET Abs IC50” value of the first is higher: over 20 µM for the first, 4.1 µM for the second.

Compared with Ac-[αAllylPro]D[tBuAla][B5(4)]D[Phe(3-COOH)]AAFL[PyrS2][2F3MeF][Bta][F2PipNva]-NH2 (staple 1-4, 4-11) [I-1608], Ac-[αAllylPro]D[tBuAla][B5(3)]D[TfeGA]AAFT[PyrS2][Phe(2-Cl)][Bta][Nva(5-morpholino)]-NH2 (staple 1-4, 4-11) [I-1609] is 2.3-fold lower in “NanoBRET Abs IC50” value: 15.1 µM for the first, 6.7 µM for the second.

Target: T4, Bcat-Halo
Assay: NanoBRET Abs IC50 in HEK293 cells; competitor TCF4-Luc on Bcat-Halo

B4 and B5 are within 1.5-fold of each other in IC50: 27.3 µM for the first, 32.8 µM for the second.

For B1, the IC50 was over 20 µM.
